Measured values taken from patent publication US12065466B2, “Methods and compositions for protein sequencing” (Quantum-Si Incorporated, priority 2020, dated 2024).
Where two headings read alike, the source gives them in different places.

Tests used:
[1] = system: N-terminal amino acids of peptides; test: Single-molecule terminal amino acid recognition by labeled recognition molecule (dwell time analysis); format: binding
Protocol: An adaptor protein involved in proteolytic pathways was identified as a potential candidate for use as a labeled recognition molecule for detecting N-terminal aromatic residues. The adaptor protein, ClpS2 from an α-proteobacterium (A. tumefaciens), was expressed and labeled at an exposed cysteine residue. […] The exposed cysteine residue was labeled with a rhodamine dye (ATTO 532).
Peptides having different N-terminal aromatic residues were prepared to test whether the labeled ClpS2 was capable of N-terminal amino acid discrimination at the single molecule level.
FIG. 19C is a plot showing discriminant pulse durations (time duration of signal peaks) among the three N-terminal residues when reversibly bound by labeled ClpS2. FIG. 19D is a plot showing discriminant interpulse durations (time duration between signal pulses) among the three N-terminal residues. […] Mean pulse duration for the different N-terminal residues is visualized by histograms (A)-(B) and layered histogram (C).

[2] = system: amino acid at a terminal position of a polypeptide; test: Amino acid binding preference of recognition proteins (Tables 1 and 2); conditions: Table 1, ClpS proteins; amino acid identity at a terminal position of a polypeptide; inferred from literature and/or demonstrated by the inventors
Description: It should be appreciated that these sequences and other examples described herein are meant to be non-limiting, and recognition molecules in accordance with the application can include any homologs, variants thereof, or fragments thereof minimally containing domains or subdomains responsible for peptide recognition.

[3] = system: immobilized peptide containing N-terminal phenylalanine (FYPLPWPDDDY (SEQ ID NO: 235)); test: Simultaneous single-molecule recognition with differentially labeled recognition molecules; format: binding; conditions: 500 nM each binder
Protocol: Single peptide molecules containing N-terminal phenylalanine ([…] (SEQ ID NO: 235)) were immobilized in sample wells of a chip. Buffer containing 500 nM each of atClpS1 (Agrobacterium tumifaciens ClpS1; sequence provided in Table 1) and atClpS2-V1 (Agrobacterium tumifaciens ClpS2 variant 1; sequence provided in Table 1) was added, where atClpS1 and atClpS2-V1 were labeled with Cy3 and Cy3B, respectively. Since the intensity of Cy3B is higher than Cy3, atClpS2-V1 binding events were readily distinguishable from atClpS1 binding events.
The pulse duration distributions were distinct for each binder (FIG. 24B) and corresponded to their kinetic profiles as observed in single-binder experiments. Mean pulse duration was 1.3 seconds for atClpS1 and 1.0 seconds for atClpS2-V1 (FIG. 24C). Pulse rate was also distinct: 8.1 pulses/min for atClpS1 and 14.1 pulses/min for atClp2-V1 (FIG. 24C).

[4] = target: T1, fluorescently-labeled peptide containing N-terminal phospho-tyrosine (Homo sapiens, UniProt P06241, C239S/C240S/C246S/K204L/S186A/T181V); test: Single-molecule recognition of modified amino acids by immobilized Fyn SH2 variant; format: binding
T1 construct: Src Homology 2 (SH2) domain from Fyn
Protocol: Experiments were performed to evaluate recognition of amino acids containing specific post-translation modifications. […] The variant protein was immobilized to the bottom of sample wells, and single-molecule signal traces were collected upon addition of a fluorescently-labeled peptide containing N-terminal phospho-tyrosine. […] Pulse duration data collected during these experiments is shown in FIG. 22B (top, middle, and bottom plots corresponding to the top, middle, and bottom traces of FIG. 22A, respectively). Pulse duration and interpulse duration statistics are shown in FIG. 22C (top and bottom panels, respectively). Control experiments were performed to confirm that the Fyn protein was specific for the phosphorylated tyrosine. The experiments were repeated for each of three different peptides: a first peptide containing N-terminal unmodified tyrosine (Y; FIG. 22D), a second peptide containing N-terminal and penultimate unmodified tyrosines (YY; FIG. 22E), and a third peptide containing N-terminal phospho-serine (FIG. 22F).

[5] = system: amino acid at a terminal position of a polypeptide; conditions: Table 2; amino acid identity at a terminal position (phosphotyrosine also internal); inferred from literature and/or demonstrated by the inventors; cited from earlier work
[6] = system: labeled N-terminal LA peptide; test: Stopped-flow dissociation rate (koff), PS557 derivatives; format: binding; conditions: excess unlabeled trap peptide
Description: (§1) To measure the dissociation rate (koff) by stopped-flow, complexes of binder bound to labeled peptide substrate at an optimal concentration were rapidly mixed with excess unlabeled trap peptide. […] The averaged raw traces were fitted with an exponential equation to determine the koff (FIG. 37B, bottom panel).

[7] = system: labeled N-terminal FA peptide; test: Stopped-flow dissociation rate (koff), atClpS2-V1 derivatives; format: binding; conditions: excess unlabeled trap peptide
Description: as §1

B1: atClpS1: Agrobacterium tumifaciens ClpS1, SEQ ID NO: 93 (protein, listed as Agrobacterium tumifaciens)
chain: MIAEPICMQGEGDGEDGGTNRGTSVITRVKPKTKRPNLYRVLLLNDDYTPMEFVIHILERFFQKDREAATRIMLHVHQHGVGECGVFTYEVAETKVSQVMDFARQHQHPLQCVMEKK
- recognition of terminal amino acids (dwell time analysis) [1]: differentiable recognition of phenylalanine, leucine, tryptophan, and tyrosine
- Binding Pref. [2]: F, W, Y, L
- Pulse rate [3]: 8.1 pulses/min
- mean pulse duration [3]: 1.3 s

B2: Synechococcus elongatus ClpS2: ClpS protein, SEQ ID NO: 106 (protein, listed as Synechococcus elongatus)
chain: MSPQPDESVLSILGVPRPCVKKRSRNDAFVLTVLTCSLQAIAAPATAPGTTTTRVRQPYPHFRVIVLDDDVNTFQHVAECLLKYIPGMTGDRAWDLTNQVHYEGAATVWSGPQEQAELYHEQLRREGLTMAPLEAA
- recognition of terminal amino acids (dwell time analysis) [1]: leucine recognition
- Binding Pref. [2]: F, W, Y, L

B3: H. sapiens Fyn SH2 domain triple mutant superbinder: SEQ ID NO: 117 (protein, listed as Homo sapiens)
chain: MGAMDSIQAEEWYFGKLGRKDAERQLLSFGNPRGTFLIRESETVKGAYALSIRDWDDMKGDHVKHYLIRKLDNGGYYITTRAQFETLQQLVQHYSERAAGLSSRLVVPSHK
- peptide binding (single-molecule signal traces) ([4]; negative controls: N-terminal unmodified tyrosine (Y), YY, N-terminal phospho-serine): binding was not detected
- peptide binding (single-molecule signal traces) ([4]; peptide containing N-terminal phospho-tyrosine): Peptide binding by the immobilized protein was detected
- Binding Pref. [5]: phospho-Y

B4: PS696 (protein)
chain: MPTAASATESAIEDTPAPARPEVDGRTKPKRQPRYHVVLWNDDDHTYQYVVVMLQSLFGHPPERGYRLAKEVDTQGRVIVLTTTREHAELKRDQIHAFGYDRLLARSKGSMKASIEAEEGSAGSAAGSGEFMDKDCEMKRTTLDSPLGKLELSGCEQGLHEIKLLGKGTSAADAVEVPAPAAVLGGPEPLMQATAWLNAYFHQPEAIEEFPVPALHHPVFQQESFTRQVLWKLLKVVKFGEVISYQQLAALAGNPAATAAVKTALSGNPVPILIPCHRVVSSSGAVGGYEGGLAVKEWLLAHEGHRLGKPGLGGSAGSAAGSGEFHHHHHHHHHHGGGSGGGSGGGSGLNDFFEAQKIEWHEGGGSGGGSGGGSGLNDFFEAQKIEWHE
- LA koff [6]: 0.15 s⁻¹

B5: PS703 (protein)
chain: MSDSPVDLKPKPKVKPKLERPKLYKVMLLNDDYTPMSFVTVVLKAVFRMSEDTGRRVMMTAHRFGSAVVVVCERDIAETKAKEATDLGKEAGFPLMFTTEPEEGSAGSAAGSGEFMDKDCEMKRTTLDSPLGKLELSGCEQGLHEIKLLGKGTSAADAVEVPAPAAVLGGPEPLMQATAWLNAYFHQPEAIEEFPVPALHHPVFQQESFTRQVLWKLLKVVKFGEVISYQQLAALAGNPAATAAVKTALSGNPVPILIPCHRVVSSSGAVGGYEGGLAVKEWLLAHEGHRLGKPGLGGSAGSAAGSGEFHHHHHHHHHHGGGSGGGSGGGSGLNDFFEAQKIEWHEGGGSGGGSGGGSGLNDFFEAQKIEWHE
- FA koff [7]: 0.7674 s⁻¹

B6: PS704 (protein)
chain: MSDSPVDLKPKPKVKPKLERPKLYKVMLLNDDYTPMSFVTVVLKAVFRMSEDTGRRVMMTAHRFGSAVVVVCERDIAETKAKEATDLGKEAGFPLMFTTEPEEGSAGSAAGSGEFMDKDCEMKRTTLDSPLGKLELSGCEQGLHEIKLLGKGTSAADAVEVPAPAAVLGGPEPLMQATAWLNAYFHQPEAIEEFPVPALHHPVFQQESFTRQVLWKLLKVVKFGEVISYQQLAALAGNPAATAAVKTALSGNPVPILIPCHRVVSSSGAVGGYEGGLAVKEWLLAHEGHRLGKPGLGMDKDCEMKRTTLDSPLGKLELSGCEQGLHEIKLLGKGTSAADAVEVPAPAAVLGGPEPLMQATAWLNAYFHQPEAIEEFPVPALHHPVFQQESFTRQVLWKLLKVVKFGEVISYQQLAALAGNPAATAAVKTALSGNPVPILIPCHRVVSSSGAVGGYEGGLAVKEWLLAHEGHRLGKPGLGGSAGSAAGSGEFHHHHHHHHHHGGGSGGGSGGGSGLNDFFEAQKIEWHEGGGSGGGSGGGSGLNDFFEAQKIEWHE
- FA koff [7]: 0.6774 s⁻¹

B7: PS705 (protein)
chain: MSDSPVDLKPKPKVKPKLERPKLYKVMLLNDDYTPMSFVTVVLKAVFRMSEDTGRRVMMTAHRFGSAVVVVCERDIAETKAKEATDLGKEAGFPLMFTTEPEEHHHHHHHHHHGGGSGGGSGGGSGLNDFFEAQKIEWHEGGGSGGGSGGGSGLNDFFEAQKIEWHEGSAGSAAGSGEFMDKDCEMKRTTLDSPLGKLELSGCEQGLHEIKLLGKGTSAADAVEVPAPAAVLGGPEPLMQATAWLNAYFHQPEAIEEFPVPALHHPVFQQESFTRQVLWKLLKVVKFGEVISYQQLAALAGNPAATAAVKTALSGNPVPILIPCHRVVSSSGAVGGYEGGLAVKEWLLAHEGHRLGKPGLG
- FA koff [7]: 1.2655 s⁻¹
